Target: MtrD multidrug efflux pump from N. gonorrhoeae strain CR.103 (MtrD_(CR103)) (Neisseria gonorrhoeae) (UniProt Q51073)
Assay: cryo-EM structure; single-particle cryo-EM of purified MtrD_(CR103) in lipid nanodiscs (MSP 1E3D1), 2 uM, 20 mM Tris-HCl pH 7.5, 100 mM NaCl; one structure with fortuitously bound hydrolyzed ampicillin, one after incubation with 10 uM erythromycin for 2 h; C1 symmetry

For “MtrD multidrug efflux pump from N. gonorrhoeae strain CR.103 (MtrD_(CR103)) (from UniProt Q51073 1-1067) (natural protein)”, the stoichiometry N was 3.

Reference: publication PMC7251214
